Assay results taken from the supplement of paper PMC10567573.
± gives the standard deviation.

Assay: protein stability index of a GFP-peptide fusion (GPS, HEK-293T) (PSI 1-6); higher = more stable
Conditions: c terminus: a fixed tail appended
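Note: 24-mer peptide tiles fused after GFP, lentivirally expressed, FACS-sorted into six equal bins by GFP/DsRed ratio, decoded by Illumina sequencing, PSI is the read-weighted mean bin number.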

| Sequence | protein stability index (treatment: DMSO) | protein stability index (treatment: MLN4924 1 uM, 8 h) |
| --- | --- | --- |
| MGVSSVIHPKNPHAPTIHFNYRYF [CPOX] | 2.16 ± 0.35 | 2.12 ± 0.18 |
| ILRKLPQQREKLSLIRKHAQTFIA [CCND2] | 2.3 ± 0.14 | 2.42 ± 0.41 |
| CPATWGPSVEQAADSLDFDETFLA [FOXJ1] | 4.56 ± 0.15 | 4.61 ± 0.064 |
| RLSKEWEDSKRWSKMDQLAKELTA [CHGA] | 3.18 ± 0.34 | 3.41 ± 0.66 |
| LPKLYLPTGPRRGRDELGGGRRPG [CDKN1A] | 4.05 ± 0.63 | 4.35 ± 0.38 |
| NKIKVMHKQLLLFHNAVSAYFAGN [ARFIP2] | 2.55 ± 0.64 | 2.34 ± 0.24 |
| LFFAVGIAQYALLGYFIRSWRTLA [SLC22A15] | 3.3 ± 0.34 | 3.18 ± 0.26 |
| VPQPRPPGARTRAGAARVARWRRL [FBXO33] | 4.39 ± 0.42 | 4.76 ± 0.21 |
| ANTTPSGKSVSSSSSVETGPSVSE [SPATS1] | 5.32 ± 0.23 | 5.31 ± 0.23 |
| IGEGMTKYDYLMTLHGVVNESTVC [TENT5D] | 2.53 ± 0.19 | 2.33 ± 0.19 |
| SGSQMSHNAVTSHQRPGWPGQPHS [NCF4] | 3.95 ± 0.34 | 3.94 ± 0.29 |
| PSRVHGSLEPFRPQQAPQDDGSQD [PWWP2B] | 5.52 ± 0.21 | 5.52 ± 0.22 |
| QNLQEEKERKLECLPPEPSPDDPE [FAF2] | 5.44 ± 0.37 | 5.46 ± 0.46 |
| LLPEKAFSDIPSPYLRGTIKMMQA [GFOD1] | 2.45 ± 0.23 | 2.81 ± 0.44 |
| TDILDLENQRENLEQPFLSVFKKG [PLEKHN1] | 4.52 ± 0.07 | 4.24 ± 0.21 |
| ARELAITDSEHSDAEVSCTDNGTF [RETREG3] | 5.56 ± 0.28 | 5.592 ± 0.033 |
| LLFNVKSPTDIQDSSIIRTTQDLF [RHOBTB3] | 2.37 ± 0.17 | 2.35 ± 0.32 |
| SCKADVVELLLSHADCDRRSRIEA [FEM1B] | 2.42 ± 0.17 | 2.65 ± 0.29 |
| SEKKTISFQGCMAQLFMDHLFAGA [OR4A15] | 2.56 ± 0.73 | 2.66 ± 0.79 |
| QRAKCKDPQLEIAYRGNCKDVSRC [SMOC2] | 3.85 ± 0.21 | 4 ± 0.14 |
| TDHQTPPTSPVQGTTPQISPSTLI [HDAC6] | 4.93 ± 0.16 | 4.86 ± 0.27 |
| TIIFTAAREGRETLKCLSHHVADA [TOR1AIP2] | 2.42 ± 0.13 | 2.62 ± 0.2 |
| TWKQELLKLMDRHKKDCAREKPFK [ZNF75A] | 2.69 ± 0.25 | 2.88 ± 0.3 |

| Sequence | protein stability index (treatment: DMSO) | protein stability index (treatment: MLN4924 1 uM, 8 h) |
| --- | --- | --- |
| NLGVENMNHYKKTTLEIHNTEERQ [PTPN9] | 4.4 ± 0.2 | 4.8 ± 0.28 |
| KPGRKTNQLQYMQNVVVKTLWKHQ [BRD3] | 2.25 ± 0.2 | 2.62 ± 0.21 |
| IFDDNFIEERKQGLEQFINKVAGH [SNX3] | 3.03 ± 0.39 | 3.32 ± 0.44 |
| VQEDLEAEFQSLFSLLEELKEGML [FSD1] | 2.99 ± 0.57 | 3.01 ± 0.53 |
| VIAYDHSRVLLSAIEGIPGSDYVN [PTPRD] | 1.89 ± 0.5 | 1.79 ± 0.28 |
| TYNTKVYKMFASRRKQRYWPFSMD [LOXL2] | 2.32 ± 0.51 | 1.89 ± 0.15 |
| SYFSGQGSDTGASLKLASSELERL [JUNB] | 4.182 ± 0.04 | 4.427 ± 0.038 |
| FSTSKWNHLLHHFVIGHLKGAPAS [FADS1] | 2.65 ± 0.67 | 2.17 ± 0.38 |
| DPDVGVNSLQSYQLSPNKHFSLRV [PCDHGA10] | 2.6 ± 0.25 | 2.51 ± 0.24 |
| AAQMMDIWVPIKIGALTYFAQADA [ACSBG2] | 2.28 ± 0.69 | 2.85 ± 0.49 |
| CQYLMATFVNVYIASFIRGPNPSK [CDS2] | 3.67 ± 0.3 | 3.4 ± 0.45 |
| MAVLKLTDQPPLVQAIFSGDPEEI [ANKRD44] | 3.37 ± 0.28 | 3.43 ± 0.21 |
| SGSSYCSFPPSLSSSSSSSPTSGS [LURAP1L] | 4.32 ± 0.13 | 4.42 ± 0.17 |
| ELKKMVQQSDLGQYVTFLRSFSDK [ALG2] | 2.21 ± 0.29 | 2.53 ± 0.42 |
| GQQDQVKLHDFFSYLMDHFIPSSH [PPEF2] | 2.81 ± 0.57 | 2.89 ± 0.71 |
| FTFEGFSRLRFLNLGRMIDWVPVE [ZER1] | 2.76 ± 0.63 | 2.81 ± 0.43 |
| QPWMVIEGIRQTEYTLTGLKFDMK [FSD1] | 2.29 ± 0.35 | 2.52 ± 0.49 |
| PPPPPPSRGGPPPPPPPPHNSGPP [WASL] | 5.28 ± 0.17 | 5.3 ± 0.2 |
| PSGCAIACGGLDNKCSVYPLTFDK [GNB5] | 2.72 ± 0.17 | 2.94 ± 0.36 |
| TLSFIVDGQYMGVAFRGLKGKKLY [SPSB1] | 2.27 ± 0.46 | 2.36 ± 0.36 |
| NVGEISVSTRLTVLREDQIPRGFP [PTPRD] | 3.31 ± 0.54 | 3.44 ± 0.44 |
| EVASNTEMIQTSKTEITDLRRTMQ [KRT15] | 3.89 ± 0.21 | 4.27 ± 0.32 |
| EDQVVVNKAAVMVHQLSKKEASRH [CTNNB1] | 4.82 ± 0.25 | 4.8 ± 0.22 |

| Sequence | protein stability index (treatment: DMSO) | protein stability index (treatment: MLN4924 1 uM, 8 h) |
| --- | --- | --- |
| HIPSQEVPGTQVGQGGKLWDPSVQ [ZNF263] | 4.35 ± 0.12 | 4.44 ± 0.24 |
| GRDELGGGRRPGTSPALLQGTAEE [CDKN1A] | 5.4 ± 0.34 | 5.41 ± 0.24 |
| DLDNYFTARRLLSQVRALDRFQVP [NFE2L1] | 2.5 ± 0.2 | 2.35 ± 0.3 |
| KKFELVPSPPTSPPWGLGPGAGDP [MYCL] | 4.1 ± 0.28 | 4.07 ± 0.21 |
| AEMNRGSNEWKTVVGGAMFFIGFT [COX4I1] | 2.95 ± 0.91 | 3.18 ± 0.44 |
| AKAAALSTKTPAPCSEFMEPSSDP [SPAG8] | 5.1 ± 0.33 | 5.41 ± 0.19 |
| LSSLGENPQRQGLLKTPWRAASAM [GCH1] | 2.8 ± 0.23 | 3.17 ± 0.13 |
| SQLRLVCKRMDLVCQRMLNQGFLK [FBXO28] | 2.38 ± 0.42 | 2.46 ± 0.2 |
| ATIENAQPILQIDNARLAADDFRT [KRT16] | 4.41 ± 0.17 | 4.52 ± 0.16 |
| NFDSIYICPSTFACAQLATGAACR [HDAC6] | 2.24 ± 0.21 | 2.16 ± 0.26 |
| KGVNRKLGRTGLYPSYKVREKIET [FUT8] | 3.2 ± 0.31 | 3.4 ± 0.22 |
| NEWRRPIIQFVESGDDKNSNYFSM [TRIM29] | 3 ± 0.3 | 3.12 ± 0.34 |
| PPCAWACPVPAHRRGSWRLPYTDG [CTBP1-DT] | 2.92 ± 0.23 | 2.93 ± 0.17 |
| MPDEPVEAPALPAPAAPMVSKGAE [BRD3] | 5.17 ± 0.37 | 5.37 ± 0.3 |
| TPVVTESTATSITLTWDSGNPEPV [PTPRD] | 4.21 ± 0.057 | 4.16 ± 0.33 |
| LEEEIRRKQILLRGKLKKTEEELR [ZC2HC1C] | 4.39 ± 0.17 | 4.59 ± 0.39 |
| HISNQKMPTGPPEDRLSLKFLPSS [DRICH1] | 3.21 ± 0.14 | 3.44 ± 0.12 |
| MVVKTFMDMDQDSEEEKELYLNLA [PDS5B] | 2.79 ± 0.22 | 3 ± 0.23 |
| LPSNPCATTNACEKPIGSCVTNPC [KRT33B] | 4.29 ± 0.081 | 4.41 ± 0.17 |
| STQLEMQLEKPKPVKPVTFSTGIK [MNAT1] | 4.28 ± 0.16 | 4.43 ± 0.22 |
| MACAYAPSGCAIACGGLDNKCSVY [GNB5] | 2.44 ± 0.13 | 2.31 ± 0.25 |
| REVFNEIYPVWTYSYLVLLFPVFL [SLC19A2] | 2.71 ± 0.61 | 2.62 ± 0.21 |
| VHRRGEYNVYSTFQSHEPEFDYLK [PPP2R2B] | 2.97 ± 0.11 | 2.88 ± 0.17 |

| Sequence | protein stability index (treatment: DMSO) | protein stability index (treatment: MLN4924 1 uM, 8 h) |
| --- | --- | --- |
| QVRSAAVQLIWVVSQLYPESIVPI [INTS4] | 3.29 ± 0.32 | 2.9 ± 0.32 |
| DSRRVTKENSHQVKEELSQKFDTL [TRIM63] | 5.08 ± 0.066 | 5.02 ± 0.28 |
| DRGKDSVEILMILFAFMLVYPKEF [PPEF2] | 2.97 ± 0.19 | 2.71 ± 0.61 |
| TLVGNVAQDLGLKMTDLLSRRLQL [PCDHGC5] | 2.58 ± 0.66 | 2.6 ± 0.57 |
| KQRSVCTWGKNKPGIGAVILKRFC [FAN1] | 1.99 ± 0.31 | 2.02 ± 0.15 |
| IVAVLCYINLLNYMDRFTVAGVLP [SPNS1] | 3.23 ± 0.3 | 3.45 ± 0.14 |
| LQAPFLPPKAPPPVIKIPECPSMG [RHOBTB1] | 3.6 ± 0.23 | 3.53 ± 0.57 |
| KLLNITADPMDWSPSNVQKWLLWT [SPDEF] | 2.34 ± 0.46 | 2.22 ± 0.21 |
| FRGDDGIFDDNFIEERKQGLEQFI [SNX3] | 3.28 ± 0.18 | 3.76 ± 0.66 |
| QFTMGGPAISMASPMSIPTNTMHY [CARM1] | 2.54 ± 0.21 | 2.68 ± 0.18 |
| ERSLRLQARYHDTPYKPPAGRAAA [MYORG] | 3.55 ± 0.31 | 4.15 ± 0.11 |
| KVLGRLRALSDTTEELTVIKSSLK [SLC2A12] | 2.58 ± 0.25 | 2.76 ± 0.28 |
| CVTLVWRMPDEDSKIDHYVLEYRR [FSD1] | 2.29 ± 0.43 | 1.93 ± 0.3 |
| HHWDHARGNPELARLRPGLAVLGA [HAGHL] | 3.1 ± 0.34 | 3.08 ± 0.45 |
| PRAAHACATVGNRGFVFGGRYRDA [KLHDC2] | 2.19 ± 0.19 | 2.12 ± 0.14 |
| LELSYGFENGQKAAVVHHFESFPA [TOR1AIP2] | 2.52 ± 0.58 | 2.42 ± 0.18 |
| PILAPRIFGSNKWTTEQQQRFHEI [ARL6IP1] | 3.07 ± 0.25 | 3 ± 0.22 |
| VESVFFGGGTPSLASPHTVAAVLE [RSAD1] | 2.97 ± 0.18 | 3.02 ± 0.47 |
| VTLALLGSYTVQSELGDYDPDECG [EPB41L3] | 2.46 ± 0.4 | 2.62 ± 0.27 |
| QQYQSQAKQLFRKLNEQSPTRCTL [SEC22B] | 3.46 ± 0.073 | 3.44 ± 0.27 |
